{"source": "patent CN114958811A", "key": {"[1]": {"target": "RBD-Fc (义翘神州 40592-V05H) (SARS-CoV-2) (UniProt P0DTC2)"}, "[2]": {"target": "RBD-Fc (义翘神州 40592-V05H) (SARS-CoV-2) (UniProt P0DTC2)", "remark": "listed apart in the source"}}, "note": "Where two headings read alike, the source gives them in different places."}
{"substance": "hACE2-Fc融合蛋白 (fusion of the human ACE2 extracellular domain with the Fc fragment of human IgG1) (Fc fusion)", "values": [{"measurement": "IC50", "setting": "[1]", "result": 5.02, "unit": "nM"}, {"measurement": "IC50", "setting": "[2]", "result": 7.6, "unit": "nM"}]}
